# Paper PMC5993331
# How the values were obtained:
# [1] = target: factor H (FH) from Coturnix quail (Coturnix coturnix quail); experiment: ELISA; one microgram of FH coated on microtiter wells; 0.03125 to 2 μM histidine-tagged CspA proteins or DbpA added; detected by mouse anti-histidine tag; KD from a one-site fit of OD405
# [2] = target: factor H (FH) from human, purified (human) (UniProt P08603); experiment: SPR; Biacore 3000; ten micrograms of FH from human, mouse or horse conjugated to a CM5 chip; CspA proteins injected at 10 μL/min, 25°C; 1:1 Langmuir model
# [3] = target: factor H (FH) from mouse, purified (mouse (Mus musculus)) (UniProt P06909); experiment: as above
# [4] = target: factor H (FH) from human, purified (human) (UniProt P08603); experiment: ELISA; one microgram of FH coated on microtiter wells; 0.03125 to 2 μM histidine-tagged CspA proteins or DbpA added; detected by mouse anti-histidine tag; KD from a one-site fit of OD405
# [5] = target: factor H (FH) from mouse, purified (mouse (Mus musculus)) (UniProt P06909); experiment: as above
# [6] = target: human complement C7 (human) (UniProt P10643); experiment: SPR; Biacore 3000; ten micrograms of human C7, C9 or plasminogen conjugated on a CM5 chip (2823, 2034 and 2106 RU); 0.0625 to 1 uM histidine tagged CspA protein flowed over at 10 uL/min, 25°C; 1:1 Langmuir model
# [7] = target: human complement C9 (human) (UniProt P02748); experiment: as above
# [8] = target: human plasminogen (human); experiment: as above
# [9] = target: factor H (FH) from horse (horse); experiment: SPR; Biacore 3000; ten micrograms of FH from human, mouse or horse conjugated to a CM5 chip; CspA proteins injected at 10 μL/min, 25°C; 1:1 Langmuir model
# [10] = target: factor H (FH) from horse (horse); experiment: ELISA; one microgram of FH coated on microtiter wells; 0.03125 to 2 μM histidine-tagged CspA proteins or DbpA added; detected by mouse anti-histidine tag; KD from a one-site fit of OD405
# Chain of factor H (FH) from human, purified (human) (P08603 19-1231): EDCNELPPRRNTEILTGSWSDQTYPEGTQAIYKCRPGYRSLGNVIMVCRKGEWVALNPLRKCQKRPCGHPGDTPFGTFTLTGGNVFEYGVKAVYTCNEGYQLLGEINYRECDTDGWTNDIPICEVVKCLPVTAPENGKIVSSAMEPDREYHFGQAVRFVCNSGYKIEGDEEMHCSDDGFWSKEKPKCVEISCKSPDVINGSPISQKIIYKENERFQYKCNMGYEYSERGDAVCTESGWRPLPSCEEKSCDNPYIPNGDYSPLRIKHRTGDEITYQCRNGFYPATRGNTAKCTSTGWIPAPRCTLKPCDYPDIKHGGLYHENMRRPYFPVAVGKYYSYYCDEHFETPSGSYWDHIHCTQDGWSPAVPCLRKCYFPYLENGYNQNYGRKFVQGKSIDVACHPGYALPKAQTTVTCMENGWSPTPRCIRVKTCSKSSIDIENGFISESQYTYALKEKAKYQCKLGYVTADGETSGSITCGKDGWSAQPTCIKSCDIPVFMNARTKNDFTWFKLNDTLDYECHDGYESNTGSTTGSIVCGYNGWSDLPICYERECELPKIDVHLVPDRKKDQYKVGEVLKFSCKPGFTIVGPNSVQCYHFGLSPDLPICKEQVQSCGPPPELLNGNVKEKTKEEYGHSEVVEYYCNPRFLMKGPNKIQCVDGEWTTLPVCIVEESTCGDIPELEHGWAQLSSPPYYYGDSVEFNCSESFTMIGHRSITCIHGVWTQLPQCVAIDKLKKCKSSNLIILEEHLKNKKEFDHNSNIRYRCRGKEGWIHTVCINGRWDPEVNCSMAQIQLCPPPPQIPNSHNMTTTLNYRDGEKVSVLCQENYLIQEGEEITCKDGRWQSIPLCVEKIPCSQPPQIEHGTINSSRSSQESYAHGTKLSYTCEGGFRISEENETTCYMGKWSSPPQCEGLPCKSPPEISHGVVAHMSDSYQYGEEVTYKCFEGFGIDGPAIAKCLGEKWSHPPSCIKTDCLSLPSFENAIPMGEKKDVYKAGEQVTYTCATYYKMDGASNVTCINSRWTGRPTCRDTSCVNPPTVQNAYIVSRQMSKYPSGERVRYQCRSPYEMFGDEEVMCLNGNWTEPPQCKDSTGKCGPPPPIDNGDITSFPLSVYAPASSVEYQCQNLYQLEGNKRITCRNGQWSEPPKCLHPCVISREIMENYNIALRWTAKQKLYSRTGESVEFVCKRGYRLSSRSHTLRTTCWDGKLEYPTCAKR
# Chain of factor H (FH) from mouse, purified (mouse (Mus musculus)) (P06909 19-1234): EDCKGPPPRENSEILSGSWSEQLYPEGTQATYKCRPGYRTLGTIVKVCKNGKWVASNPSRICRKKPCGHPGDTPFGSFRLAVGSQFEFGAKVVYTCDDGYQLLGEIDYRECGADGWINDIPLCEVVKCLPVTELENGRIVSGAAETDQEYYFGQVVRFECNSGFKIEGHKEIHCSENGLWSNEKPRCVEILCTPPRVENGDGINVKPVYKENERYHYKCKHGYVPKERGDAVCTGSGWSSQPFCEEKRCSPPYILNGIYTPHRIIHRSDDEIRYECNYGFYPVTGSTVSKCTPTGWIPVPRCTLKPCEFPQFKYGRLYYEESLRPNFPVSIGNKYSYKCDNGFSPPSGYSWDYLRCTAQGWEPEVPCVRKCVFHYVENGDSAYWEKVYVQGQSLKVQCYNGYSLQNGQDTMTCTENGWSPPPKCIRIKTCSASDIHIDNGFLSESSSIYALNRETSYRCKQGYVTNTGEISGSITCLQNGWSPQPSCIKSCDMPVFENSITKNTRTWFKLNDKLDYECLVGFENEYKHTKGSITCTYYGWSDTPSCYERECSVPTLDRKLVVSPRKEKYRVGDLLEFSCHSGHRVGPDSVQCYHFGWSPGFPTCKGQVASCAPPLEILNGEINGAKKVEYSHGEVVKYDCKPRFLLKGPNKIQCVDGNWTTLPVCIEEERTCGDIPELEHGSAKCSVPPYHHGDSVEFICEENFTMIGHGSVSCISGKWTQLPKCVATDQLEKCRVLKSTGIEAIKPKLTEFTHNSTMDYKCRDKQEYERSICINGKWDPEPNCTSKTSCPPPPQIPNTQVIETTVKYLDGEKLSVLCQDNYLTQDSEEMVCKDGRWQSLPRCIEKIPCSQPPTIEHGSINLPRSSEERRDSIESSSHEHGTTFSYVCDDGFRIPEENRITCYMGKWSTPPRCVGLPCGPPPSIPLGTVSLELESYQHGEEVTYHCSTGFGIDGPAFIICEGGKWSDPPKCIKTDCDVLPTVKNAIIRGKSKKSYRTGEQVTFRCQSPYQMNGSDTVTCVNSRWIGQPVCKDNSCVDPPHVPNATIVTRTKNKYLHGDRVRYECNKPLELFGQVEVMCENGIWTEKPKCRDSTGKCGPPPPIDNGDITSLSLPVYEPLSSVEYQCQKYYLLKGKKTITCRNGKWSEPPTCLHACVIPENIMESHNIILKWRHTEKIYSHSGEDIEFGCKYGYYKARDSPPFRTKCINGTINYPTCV
# Chain of human complement C7 (human) (P10643 23-843): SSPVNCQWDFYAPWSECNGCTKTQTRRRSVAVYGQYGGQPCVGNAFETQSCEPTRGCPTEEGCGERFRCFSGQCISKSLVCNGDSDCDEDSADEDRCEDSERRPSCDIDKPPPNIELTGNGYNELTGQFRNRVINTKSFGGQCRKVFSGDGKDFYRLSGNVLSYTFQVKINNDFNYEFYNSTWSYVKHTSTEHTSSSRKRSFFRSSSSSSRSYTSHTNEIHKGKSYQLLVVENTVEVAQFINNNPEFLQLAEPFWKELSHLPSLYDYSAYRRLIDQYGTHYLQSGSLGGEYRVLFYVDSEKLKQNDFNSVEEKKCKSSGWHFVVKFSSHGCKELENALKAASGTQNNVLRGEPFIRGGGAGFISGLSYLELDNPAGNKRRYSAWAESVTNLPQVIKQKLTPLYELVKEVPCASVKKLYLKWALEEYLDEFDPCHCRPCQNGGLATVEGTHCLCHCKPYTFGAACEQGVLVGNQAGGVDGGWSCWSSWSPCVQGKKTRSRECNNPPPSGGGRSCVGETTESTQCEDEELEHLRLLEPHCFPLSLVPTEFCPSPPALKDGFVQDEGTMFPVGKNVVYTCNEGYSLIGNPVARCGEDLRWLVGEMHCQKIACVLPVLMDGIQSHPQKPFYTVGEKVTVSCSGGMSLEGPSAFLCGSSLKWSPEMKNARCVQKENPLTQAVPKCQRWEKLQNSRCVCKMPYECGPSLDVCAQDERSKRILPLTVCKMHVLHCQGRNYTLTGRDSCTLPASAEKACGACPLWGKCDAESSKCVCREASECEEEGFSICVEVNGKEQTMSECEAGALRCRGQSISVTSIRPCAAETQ
# Chain of human complement C9 (human) (P02748 22-559): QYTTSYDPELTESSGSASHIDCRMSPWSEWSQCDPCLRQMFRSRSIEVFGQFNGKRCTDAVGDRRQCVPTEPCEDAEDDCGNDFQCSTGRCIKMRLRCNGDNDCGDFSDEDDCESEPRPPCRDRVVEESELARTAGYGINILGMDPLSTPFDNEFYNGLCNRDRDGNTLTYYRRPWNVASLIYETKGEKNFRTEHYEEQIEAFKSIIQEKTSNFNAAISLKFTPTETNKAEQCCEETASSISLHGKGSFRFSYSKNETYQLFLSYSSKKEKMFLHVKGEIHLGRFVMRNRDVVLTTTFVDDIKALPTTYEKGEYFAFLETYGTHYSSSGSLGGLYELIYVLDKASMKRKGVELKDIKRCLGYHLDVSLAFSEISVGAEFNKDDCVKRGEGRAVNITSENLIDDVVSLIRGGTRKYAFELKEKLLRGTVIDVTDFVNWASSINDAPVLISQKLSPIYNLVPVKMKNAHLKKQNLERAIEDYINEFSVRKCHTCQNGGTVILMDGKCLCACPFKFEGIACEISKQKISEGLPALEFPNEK
Substance,Kd [1] [nM],Kd [2] [nM],koff [2] [s⁻¹],kon [2] [M⁻¹ s⁻¹],Kd [3] [nM],koff [3] [s⁻¹],kon [3] [M⁻¹ s⁻¹],Kd [4] [nM],Kd [5] [nM],Kd [6] [nM],koff [6] [s⁻¹],kon [6] [M⁻¹ s⁻¹],Kd [7] [nM],koff [7] [s⁻¹],kon [7] [M⁻¹ s⁻¹],Kd [8] [nM],koff [8] [s⁻¹],kon [8] [M⁻¹ s⁻¹],further results
recombinant histidine-tagged CspA of B. garinii strain ZQ1 (CspAZQ1) (natural protein),360,–,–,–,–,–,–,–,–,–,–,–,–,–,–,–,–,–,–
recombinant histidine-tagged CspA of B. afzelii strain PKo (CspAPKo) (from UniProt G0IU82 1-241) (natural protein),–,110,0.014,152000,460,0.048,115000,160,760,–,–,–,–,–,–,–,–,–,–
"CspA (Bba68) from B. burgdorferi strain B31, histidine tagged, residue 26 to 252 with leucine-246 replaced by aspartate (domain or fragment)",–,–,–,–,–,–,–,–,–,3500,0.38,143000,5400,0.36,70000,6480,0.29,49000,–
recombinant histidine-tagged CspA of B. burgdorferi strain B31 (CspAB31) (natural protein),920,200,0.017,114000,70,0.012,188000,410,230,–,–,–,–,–,–,–,–,–,Kd [9]: 550 nM; koff [9]: 0.014 s⁻¹; kon [9]: 30000 M⁻¹ s⁻¹; Kd [10]: 880 nM
"CspA (Bba68) from B. burgdorferi strain B31, histidine tagged, residue 26 to 252 (domain or fragment)",–,–,–,–,–,–,–,–,–,5260,0.45,94000,5470,0.32,60000,6350,0.26,43000,–
